Consider 3 molecules from US12509709B2, “Methods for making L-glufosinate” (BASF SE, priority 2016, dated 2025).

One test concerns weeds. The note with it: EP 0030424; cited from earlier work.
Test [1] can be described thus: Conversion of PPO to L-glufosinate with lysine as amine donor. The class given is biochemical. The note with it: over 20 hours; 0.4 mg/mL gabT, 25 mM PPO, 75 mM L-Lysine, pH 8.0, 30° C. The method, then: Lysine can be used as an amine donor for conversion of PPO to L-glufosinate with the use of an appropriate TA. PPO was converted to L-glufosinate in a reaction with the following components: • 0.4 mg/mL gabT (purified as in Example 3) • 25 mM PPO (pHed to 8 w/NaOH) • 0.2 mM pyridoxal phosphate • 75 mM L-Lysine dihydrochloride (pHed to 8 w/NaOH) • 100 mM Kphos buffer pH 8.0
The reaction was incubated at 30° C. for 20 hours with shaking (250 rpm). L-glufosinate was formed at a rate of 0.4 mM/hr over the 20 hours.

A short description of test [2]: Conversion of PPO to L-glufosinate with isopropylamine as amine donor. The class given is biochemical. To be noted: 0.25 mg/mL TA, 25 mM PPO, 250 mM isopropylamine, pH 8.0, 25 to 30° C. On the procedure:
Isopropylamine can be used as an amine donor for conversion of PPO to L-glufosinate with the use of an appropriate TA. PPO was converted to L-glufosinate in a reaction with the following components: • 0.25 mg/mL TA encoded by SEQ ID NO: 1 • 25 mM PPO • 0.2 mM pyridoxal phosphate • 250 mM isopropylamine (pHed to 8 w/H3PO4) • 100 mM Kphos buffer pH 8.0
The reaction was incubated at 25 to 30° C. for 30 hours with gentle shaking (250 rpm). At 0 hours, the amount of L-glufosinate as measured by HPLC was 0 mM, at 20 hours it was 14 mM, and at 30 hours it was 18 mM.

In the case of `CP(=O)(O)CCC(=O)C(=O)O` [PPO, 2-oxo-4-(hydroxy(methyl)phosphinoyl)butyric acid], the herbicidal activity result with weeds is “can contribute herbicidal activity”.

B1: gabT: gabT transaminase from Escherichia coli (UniProt P22256; SEQ ID NO: 3) (protein, listed as Escherichia coli)
chain: MNSNKELMQRRSQAIPRGVGQIHPIFADRAENCRVWDVEGREYLDFAGGIAVLNTGHLHPKVVAAVEAQLKKLSHTCFQVLAYEPYLELCEIMNQKVPGDFAKKTLLVTTGSEAVENAVKIARAATKRSGTIAFSGAYHGRTHYTLALTGKVNPYSAGMGLMPGHVYRALYPCPLHGISEDDAIASIHRIFKNDAAPEDIAAIVIEPVQGEGGFYASSPAFMQRLRALCDEHGIMLIADEVQSGAGRTGTLFAMEQMGVAPDLTTFAKSIAGGFPLAGVTGRAEVMDAVAPGGLGGTYAGNPIACVAALEVLKVFEQENLLQKANDLGQKLKDGLLAIAEKHPEIGDVRGLGAMIAIELFEDGDHNKPDAKLTAEIVARARDKGLILLSCGPYYNVLRILVPLTIEDAQIRQGLEIISQCFDEAKQ
Turning to B1, the “rate of L-glufosinate formation” value in test [1] stood at 0.4 mM/h.

B2: TA encoded by SEQ ID NO: 1: transaminase with the amino acid sequence of SEQ ID NO: 1 (protein, listed as Sinorhizobium arboris)
chain: MNIAAQSWERREATSFFHTFTDLPSLKTDGPVIIDHGEGPYIIDTVGRRYFEGNSGLWNMTLGFSERRLSDAALKQYQEFPGYHTFFGRNSKPTVELAERMLKLAPAPMSRVFFTNSGSEANESIVKLLWMMWAAEGRPERRKLLTRKNAYHGATVMASALTGKDYVKAFGLPGPEIVTLDCPHAWRFALPGEGDDEFAARLAANLETRILQEGPETIAGMFAEPVMGAGGVIVPPATYFAKIQPVLQRYGIPLIADEVICGFGRTGSLWGTLAVGQQPDIIVASKSMSAGYFPMGAVMLSADIDKRATAASEVWEEFPHGFTTGGHPVGCAISLEAIRIITEEGVFENVKSVSETFQSGLRALADHPMIGEARGMGLMGALETVADKKTKQSFSGDLRIGERISKEARDRGFIIRPLGSSVVLAPPFISTHGQIEELLAVLKEVLDVVYGTVKGEVA
modifications: Sinorhizobium arboris sp. nov.
For B2, the “amount of L-glufosinate formed (HPLC)” value in test [2] (at 20 hours) came to 14 mM; in test [2] (at 30 hours), 18 mM.
